Data published in patent US20260132200A1 (Regeneron, published 2026).
Positions count from the first letter of the chain named.

B1: H1H5772S (antibody, human IgG1, V domains shown)
VH: QVQLVESGGGLVQPGRSLRLSCAASGFSFDDYAMHWVRQAPGQGLEWVSGISWNGGSRDYADSVKGRFTISRDNARNSLFLQMNSLFTEDTALYYCAKDKSGYGSYFYGMDVWGQGTTVTVSS
VL: EIVLTQSPGILSLSPGDRATLSCRASQSIRNIYLAWYQQKPGQAPRLLIHGASTRATGIPDRFSGSGSGTDFTLTISRLEPEDFAVYYCQQRVSSPYTFGQGTKLEIK
B2: H1H5781P (antibody, human IgG1, V domains shown)
VH: EVQLVESGGGLVQPGRSLRLSCAASGFTFDDFTMHWVRQAPGKGLEWVSDISWNSGSIDYADSVKGRFTISRDNARNSLFLQMSSLRTEDTASYYCIKDKSGYGSYNYGLDVWGQGTTVTVSS
VL: B1 VL with I10T, I29V, R30S, N31S, V86L, Q90H
B3: H1H5780P (antibody, human IgG1, V domains shown)
VH: EVQLVESGGGLVQPGRSLRLSCAASGFTFDDYAMHWVRQAPGKGLEWVSGISWNGGSKDYADSVKGRFTISRDNTRNSLSLQMNSLRIEDTALYYCAKDKSGYGSFYYGLDVWGQGTTVTVSS
VL: B1 VL with I10T, N31S
B4: H1H5778P (antibody, human IgG1, V domains shown)
VH: EVQLVESGGGLVQPGRSLRLSCVASGFTFADFTMHWVRQAPGKGLEWVSGISWNSNSIDYADSVKGRFTISRDNAKKSLFLQMSSLRAEDTALYYCVKDRSGYSRFYYGMDVWGQGTTVTVSS
VL: EIVMTQSPATLSVSPGERAILSCRASQNINSNLAWYQQKPGQAPRLLIYGASTRATGVPARFSGSGSGTEFTLTIRSLQSEDFAVYYCQQYYNWPITFGHGTRLEIK
B5: H1H5755B (antibody, human IgG1, V domains shown)
VH: EVQLVESGGGVVQPGRSLRLSCAASGFTFSNYGMHWVRQAPGKGLEWVTVILHDGSYKYYADSVKGRFTISRDNSKNTLHLQMNSLRTEDTAVYYCAKGPMFRGVPYNHYYGMDVWGQGTTVTVSS
VL: DIQMTQSPSSLSASVGDRVTITCRASQGIRNDLGWYQQKPGKAPKRLIYAASSLQSGVSSRFSGSGSGTEFTLTISSLQPEDFATYYCLQHNSYPYTFGQGTKVEIKR
B6: H1H5757B (antibody, human IgG1, V domains shown)
VH: B5 VH with N31S, Y57N, K58R, Y60S, H80Y, S85I, T88V, A97T, P100A, F102V
VL: B5 VL with S53I, S59P, V104L
B7: H1H5758B (antibody, human IgG1, V domains shown)
VH: B5 VH with N31S, Y57N, K58R, H80Y, S85I, T88A, A97T, P100A, F102V
VL: B5 VL with Q3V, S53N, S59P, V104L
B8: H1H5788P (antibody, V domains shown)
VH: EVQLVESGGGLVQPGRSLRLSCAASGFTFDDYTMHWVRQAPGKGLEWVSGISWNSGSIGYADSVKGRFTISRDNAKNSLYLQMNSLRAEDTALFYCAKDQSGYGHYYYGMDVWGQGTTVTVSS
VL: EIVMTQSPATLSVSPGERATLSCRASQSVSSNLAWYQQKPGQAPRLLIYGASTRATDIPARFSGSGSGTEFTLTISSLQSEDFAVYHCQQYNNWPLTFGGGTKVEIK
B9: H1H5752P (antibody, human IgG1, V domains shown)
VH: QVQLVESGGGVVQPGRSLRPSCAASGFSFRDYGMHWVRQAPGKGLEWMAHIWYNGKNKYYADSVKGRFTISRDNSKNTLYLQMNSLRPEDTAVYYCARDGVSARGTPFDYWGQGTLVTVSS
VL: ETTLTQSPAFMSAAPGDKVSISCIASQYIDDDVNWYQQKPGETAIFIIQEASTLVPGISPRFSGSGYGTHFTLTINNIDSEDAAFYFCLQHDNFPYTFGQGTKLEIK
B10: H2M3541N (antibody, mouse IgG2, V domains shown)
VH: EVQLVESGGGLVRPGRSLRLSCAASGFTFDDYTMHWVRQAPGKGLEWVSDISWNSGTIGYADSVKGRFTISRDNAKNSLYLQMNSLRPEDTALYYCAKDMSGYAHYYYYGMDVWGQGTTVTVSS
VL: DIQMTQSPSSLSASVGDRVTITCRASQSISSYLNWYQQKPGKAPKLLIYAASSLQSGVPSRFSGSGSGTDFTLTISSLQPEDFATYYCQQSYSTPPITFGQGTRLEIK
B11: H1M3542N (antibody, mouse IgG1, V domains shown)
VH: B10 VH with R13Q, A23V, T28P, D30A, T57S, I58K, P88T, L93F, Y107F
VL: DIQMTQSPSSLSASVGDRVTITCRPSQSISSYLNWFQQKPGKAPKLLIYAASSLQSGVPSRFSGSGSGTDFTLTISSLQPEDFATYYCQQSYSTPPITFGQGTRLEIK
B12: H1M3613N (antibody, mouse IgG1, V domains shown)
VH: B10 VH with R13Q, R19K, A23T, D30A, A40G, T57S, I58K, P88T, G110A, M111L
VL: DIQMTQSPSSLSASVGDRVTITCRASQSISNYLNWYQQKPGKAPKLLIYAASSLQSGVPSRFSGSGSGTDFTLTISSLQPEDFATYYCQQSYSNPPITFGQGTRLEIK
B13: H1M3549N (antibody, mouse IgG1, V domains shown)
VH: B10 VH with R13Q, A23V, T28P, D30A, T57S, P88T, Y107F
VL: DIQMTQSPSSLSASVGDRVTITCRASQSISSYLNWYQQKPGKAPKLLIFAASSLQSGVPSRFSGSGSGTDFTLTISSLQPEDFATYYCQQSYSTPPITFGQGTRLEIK
B14: H2M3540N (antibody, mouse IgG2, V domains shown)
VH: QVHLEESGGGVVQPGRSLRLSCSASGFTFSSYAMHWVRQAPGKGLEWVAVIWYDGTNKYYLDSVKGRFTISRDNSKNTLFLQMNSLRAEDTAVYYCARDRGSIITHWGQGTLVTVSS
VL: DIQMTQSPSSLSASIGDRVTITCRASQNISSYLNWYQQKPGKAPKLLIYAASSLQSGVPSRFSGSGSGTDFTLTISSLQPEDFATYYCQQTYSTPPITFGQGTRLEIK
B15: H2M3563N (antibody, mouse IgG2, V domains shown)
VH: B10 VH with Q3H, R13Q, T57S, I70V, P88G, A104G, Y107G, Y108K
VL: B14 VL with I15V, N28S, S30R, A43V, S76N, E81D, T94N
B16: H2M3543N (antibody, mouse IgG2, V domains shown)
VH: B10 VH with R13Q, T57S, I70V, P88G, Y107G
VL: B14 VL with I15V, N28S, S30R, S31N, A43V, T91S, T94N
B17: H2M3547N (antibody, mouse IgG2, V domains shown)
VH: EAQLVESGGGLVQPGRSLRLSCTTSGFTFDDYTMHWVRQAPGKGLEWISDISWNGGTKGYADSVKGRFTISRDNAKNSLYLQMDSLRGEDTALYYCVKDKSGYGHFYFGLDVWGQGTTVTVSS
VL: DIQMTQSPSSLTASVGDRVTFTCRASQSISRHLSWYQQKPGKAPKLLIYAASSLESGVPSRFSGSGSGTDFTLTISSLHPEDFATYYCQQSYSNPPITFGQGTRLEIK
B18: H2M2779N (antibody, V domains shown)
VH: B8 VH with R16G, S25T, Y32F, A61V, F94Y, Q100N, H105Y
VL: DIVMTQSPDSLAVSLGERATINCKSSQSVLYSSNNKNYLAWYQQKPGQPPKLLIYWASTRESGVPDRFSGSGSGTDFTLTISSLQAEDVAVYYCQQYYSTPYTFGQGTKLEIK
B19: H2M3548N (antibody, mouse IgG2, V domains shown)
VH: B8 VH with T28K, D30A, T33A, G50E, A61V, F94Y, A97V, Q100K, Y108I, T120I
VL: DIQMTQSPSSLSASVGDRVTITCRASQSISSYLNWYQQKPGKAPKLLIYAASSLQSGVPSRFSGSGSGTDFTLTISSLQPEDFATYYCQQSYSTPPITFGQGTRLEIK
B20: H2M2862N (antibody, mouse IgG2, V domains shown)
VH: QVQLVESGGGVVQPGRSLRLSCAASGFTFRSYGMHWVRQAPGKGLEWVAMIYYDGNNKKYADSVRGRFTISRDNSKNTLYLQMNSLRVEDTAVYFCARGPGYNWLDPWGQGTLVTVSS
VL: B8 VL with S31R, T72I, T74N, V85L, H87Y, N92S, K103E

Target: T1, human CD3 expressed on cells (Jurkat, a CD3+ human T-cell line; human T cells) (human, UniProt P07766 23-126; P04234 22-100)
T1 chain 1: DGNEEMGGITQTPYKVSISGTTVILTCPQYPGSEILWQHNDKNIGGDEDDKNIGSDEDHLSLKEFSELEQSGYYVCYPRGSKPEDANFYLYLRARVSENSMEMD
T1 chain 2: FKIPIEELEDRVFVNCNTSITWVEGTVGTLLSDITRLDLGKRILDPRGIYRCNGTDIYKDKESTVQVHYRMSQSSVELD
Experiment: cell-based or functional assay
For B1, the “U937 Cytotoxicity Human T-cells [M] (EC50)” value was 6.89e-13 M.
With B2 the “U937 Cytotoxicity Human T-cells [M] (EC50)” value was 1.83e-12 M.
In the case of B3, the “U937 Cytotoxicity Human T-cells [M] (EC50)” value is reported as 4.03e-12 M.
With B4 the “U937 Cytotoxicity Human T-cells [M] (EC50)” value was 3.41e-13 M.
With B5 the “U937 Cytotoxicity Human T-cells [M] (EC50)” value was 5.16e-11 M.
With B6 the “U937 Cytotoxicity Human T-cells [M] (EC50)” value was 9.65e-11 M.
B7 was tested, and the “U937 Cytotoxicity Human T-cells [M] (EC50)” value was 8.86e-08 M.
For B8, the “U937 Cytotoxicity Human T-cells [M] (EC50)” value was 1.54e-11 M.
In the case of B9, the “U937 Cytotoxicity Human T-cells [M] (EC50)” value is reported as 1.85e-11 M.

Target: T1, human CD3 expressed on cells (Jurkat, a …)
Experiment: cell-based or functional assay
Remark: another data set of the same source
With B10 the “U937 Cytotoxicity Human T-cells [M] (EC50)” value was 5.39e-11 M.
B11 was tested, and the “U937 Cytotoxicity Human T-cells [M] (EC50)” value was 2.92e-11 M.
For B12, the “U937 Cytotoxicity Human T-cells [M] (EC50)” value was 8.66e-10 M.
In the case of B13, the “U937 Cytotoxicity Human T-cells [M] (EC50)” value is reported as 1.07e-10 M.
For B14, the “U937 Cytotoxicity Human T-cells [M] (EC50)” value was 1.25e-11 M.
B15 was tested, and the “U937 Cytotoxicity Human T-cells [M] (EC50)” value was 4.05e-11 M.
B16 was tested, and the “U937 Cytotoxicity Human T-cells [M] (EC50)” value was 1.31e-11 M.
B17 was tested, and the “U937 Cytotoxicity Human T-cells [M] (EC50)” value was 3.17e-11 M.
In the case of B18, the “U937 Cytotoxicity Human T-cells [M] (EC50)” value is reported as 6.75e-10 M.
For B19, the “U937 Cytotoxicity Human T-cells [M] (EC50)” value was 5.5e-12 M.
For B20, the “U937 Cytotoxicity Human T-cells [M] (EC50)” value was 7.66e-12 M.
